These results are taken from the supplement of paper PMC10567573.

B1: ESR2 (parent)
chain: KSCQACRLRKCYEVGMVKCGSRRE
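Also: lentivirally expressed fusions sorted by FACS into six bins by GFP to DsRed ratio, PSI derived from sequencing read proportions per bin multiplied by bin number.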

The series covers variants of B1. As to the kind of experiment: protein stability index of a GFP-peptide fusion (GPS, HEK-293T) (PSI 1-6); higher = more stable. The note with it: c terminus: a fixed tail appended.
Consider KSCQACRLRLCYEVGMVKCGSRRE, for which the protein stability index worked out at 2.24.
In the case of KSCQACRLRRCYEVGMVKCGSRRE, the protein stability index came to 1.56.
To KSCQACRLRPCYEVGMVKCGSRRE belongs 1.94.
Then KSCQACRLRVCYEVGMVKCGSRRE, with 1.89; and KSCQACRLRMCYEVGMVKCGSRRE, with 1.48.
To KSCQACRLRDCYEVGMVKCGSRRE belongs 1.49; to KSCQACRLRWCYEVGMVKCGSRRE, 1.74; to KSCQACRLRNCYEVGMVKCGSRRE, 2.27.
As to KSCQACRLRECYEVGMVKCGSRRE, the protein stability index amounted to 2.12.
To KSCQACRLRGCYEVGMVKCGSRRE belongs 1.78; to KSCQACRLRACYEVGMVKCGSRRE, 1.81; to KSCQACRLRCCYEVGMVKCGSRRE, 1.5.
To KSCQACRLRQCYEVGMVKCGSRRE belongs 1.68; to KSCQACRLRYCYEVGMVKCGSRRE, 1.79.
To KSCQACRLRSCYEVGMVKCGSRRE belongs 2.69.
KSCQACRLRHCYEVGMVKCGSRRE: the protein stability index amounted to 2.16.
Consider KSCQACRLRTCYEVGMVKCGSRRE, for which the protein stability index came out at 2.23.
For the variant KSCQACRLRICYEVGMVKCGSRRE, the protein stability index was 1.98.
Then KSCQACRLTKCYEVGMVKCGSRRE, with 2.66.
Then KSCQACRLFKCYEVGMVKCGSRRE, with 2.56; and KSCQACRLVKCYEVGMVKCGSRRE, with 2.13.
Then KSCQACRLKKCYEVGMVKCGSRRE, with 2.04; and KSCQACRLSKCYEVGMVKCGSRRE, with 1.8.
In the case of KSCQACRLYKCYEVGMVKCGSRRE, the protein stability index amounted to 2.38.
Then KSCQACRLMKCYEVGMVKCGSRRE, with 1.93.
To KSCQACRLLKCYEVGMVKCGSRRE belongs 2.14; to KSCQACRLPKCYEVGMVKCGSRRE, 2.35; to KSCQACRLNKCYEVGMVKCGSRRE, 1.88.
Then KSCQACRLGKCYEVGMVKCGSRRE, with 1.95; and KSCQACRLEKCYEVGMVKCGSRRE, with 2.03; and KSCQACRLQKCYEVGMVKCGSRRE, with 1.99.
For the variant KSCQACRLHKCYEVGMVKCGSRRE, the protein stability index was 1.92.
Then KSCQACRLDKCYEVGMVKCGSRRE, with 1.75; and KSCQACRLIKCYEVGMVKCGSRRE, with 1.82.
To KSCQACRLAKCYEVGMVKCGSRRE belongs 1.1; to KSCQACRLCKCYEVGMVKCGSRRE, 1.61.
As to KSCQACRLWKCYEVGMVKCGSRRE, the protein stability index was 1.93.
Then KSCQAQRLRKCYEVGMVKCGSRRE, with 2.94; and KSCQAVRLRKCYEVGMVKCGSRRE, with 2.42.
For the variant KSCQARRLRKCYEVGMVKCGSRRE, the protein stability index came out at 3.05.
To KSCQALRLRKCYEVGMVKCGSRRE belongs 2.48; to KSCQAHRLRKCYEVGMVKCGSRRE, 2.81.
With KSCQAIRLRKCYEVGMVKCGSRRE, the protein stability index worked out at 2.6.
For KSCQAPRLRKCYEVGMVKCGSRRE, the protein stability index is 3.03.
In the case of KSCQAWRLRKCYEVGMVKCGSRRE, the protein stability index was 2.
Then KSCQASRLRKCYEVGMVKCGSRRE, with 2.25.
To KSCQANRLRKCYEVGMVKCGSRRE belongs 2.94; to KSCQAYRLRKCYEVGMVKCGSRRE, 2.28; to KSCQAKRLRKCYEVGMVKCGSRRE, 3.22.
To KSCQAMRLRKCYEVGMVKCGSRRE belongs 2.44; to KSCQATRLRKCYEVGMVKCGSRRE, 2.62; to KSCQACRLRKCYEVGDVKCGSRRE, 1.66.
With KSCQACRLRKCYEVGFVKCGSRRE, the protein stability index is 2.1.
To KSCQACRLRKCYEVGEVKCGSRRE belongs 1.84.
For the variant KSCQACRLRKCYEVGAVKCGSRRE, the protein stability index was 1.76.
Then KSCQACRLRKCYEVGCVKCGSRRE, with 3.01; and KSCQACRIRKCYEVGMVKCGSRRE, with 1.64; and KSCQACRWRKCYEVGMVKCGSRRE, with 1.87.
To KSCQACRTRKCYEVGMVKCGSRRE belongs 2.11.
To KSCQACRARKCYEVGMVKCGSRRE belongs 2.17; to KSCQACRYRKCYEVGMVKCGSRRE, 2.35.
As for KSCQACRGRKCYEVGMVKCGSRRE, the protein stability index came to 2.36.
For the variant KSCQACRVRKCYEVGMVKCGSRRE, the protein stability index turned out to be 1.73.
Then KSCQACRFRKCYEVGMVKCGSRRE, with 2.21; and KSCQACRPRKCYEVGMVKCGSRRE, with 2.27.
To KSCQACRKRKCYEVGMVKCGSRRE belongs 2.66; to KSCQACRCRKCYEVGMVKCGSRRE, 2.61; to KSCQACRMRKCYEVGMVKCGSRRE, 2.24.
To KSCQACRERKCYEVGMVKCGSRRE belongs 2.47; to KSCQACRHRKCYEVGMVKCGSRRE, 2.4; to KSCQACRNRKCYEVGMVKCGSRRE, 2.74.
KSCQACRSRKCYEVGMVKCGSRRE: the protein stability index was 2.83.
With KSCQACRDRKCYEVGMVKCGSRRE, the protein stability index was determined as 1.61.
To KSCQACRQRKCYEVGMVKCGSRRE belongs 1.84.
To KSCQACRRRKCYEVGMVKCGSRRE belongs 2.18; to KSCQACKLRKCYEVGMVKCGSRRE, 2.03; to KSCQACGLRKCYEVGMVKCGSRRE, 2.
Then KSCQACHLRKCYEVGMVKCGSRRE, with 1.81; and KSCQACVLRKCYEVGMVKCGSRRE, with 1.89.
KSCQACLLRKCYEVGMVKCGSRRE: the protein stability index was found to be 1.74.
Then KSCQACSLRKCYEVGMVKCGSRRE, with 1.89; and KSCQACTLRKCYEVGMVKCGSRRE, with 2.46; and KSCQACYLRKCYEVGMVKCGSRRE, with 2.58.
In the case of KSCQACFLRKCYEVGMVKCGSRRE, the protein stability index was determined as 2.29.
To KSCQACDLRKCYEVGMVKCGSRRE belongs 2.06; to KSCQACILRKCYEVGMVKCGSRRE, 1.64.
Then KSCQACCLRKCYEVGMVKCGSRRE, with 2.5; and KSCQACPLRKCYEVGMVKCGSRRE, with 2.17; and KSCQACWLRKCYEVGMVKCGSRRE, with 1.89.
Regarding KSCQACQLRKCYEVGMVKCGSRRE, the protein stability index was found to be 1.66.
On to KSCQACELRKCYEVGMVKCGSRRE, for which the protein stability index was determined as 2.69.
Then KSCQACMLRKCYEVGMVKCGSRRE, with 1.48.
With KSCQACNLRKCYEVGMVKCGSRRE, the protein stability index was 1.77.
For KSCQACALRKCYEVGMVKCGSRRE, the protein stability index stood at 1.32.
